# Target: T1, human IL-13 R130Q variant (R110Q of the mature chain) (human, UniProt P35225 35-146, Biotinylated on amines (NHS-LC-biotin, 4:1) in ELISA, panning and competition assays. The letters are unchanged.)
# T1 construct: R130Q counts from Met 1 of the signal peptide, R110Q on the mature chain; Bought from Peprotech; also called IL-13 R110Q; b-R130Q
# Experiment: single-point (10 nM) phage Fab ELISA on biotinylated IL-13 R130Q
binder,measurement,value
"Phage # 39 Fab (IL-13-142 library) (Fab, V domains shown, Fab on phage pIX) VH: QVTLKESGPVLVKPTETLTLTCTVSGFSLSTYGMGVGWIRQPPGKALEWLAHIWWDDVKRYNPALKSRLTISKDTSKSQVVLTMTNMDPVDTATYYCARMGSDYDVWFDYWGQGTLVTVSS VL: DIQMTQSPSTLSASVGDRVTITCRASKSISKYLAWYQQKPGKAPKLLIYSGSTLQSGVPSRFSGSGSGTEFTLTISSLQPDDFATYYCQQHLGVPYTFGGGTKVEIK",% of Lc16Hc7,178%
"Phage # 77 Fab (IL-13-142 library) (Fab, V domains shown, Fab on phage pIX) VH: QVTLKESGPVLVKPTETLTLTCTVSGFSLSTYGMGVGWIRQPPGKALEWLAHIWWDDVKRYNPALKSRLTISKDTSKSQVVLTMTNMDPVDTATYYCARMGSDYDVWFDYWGQGTLVTVSS VL: DIQMTQSPSTLSASVGDRVTITCRASKSISKYLAWYQQKPGKAPKLLIYSGSTLQSGVPSRFSGSGSGTEFTLTISSLQPDDFATYYCQQHDFAPYTFGGGTKVEIK",% of Lc16Hc7,195%
"Phage # 78 Fab (IL-13-142 library) (Fab, V domains shown, Fab on phage pIX) VH: QVTLKESGPVLVKPTETLTLTCTVSGFSLSTYGMGVGWIRQPPGKALEWLAHIWWDDVKRYNPALKSRLTISKDTSKSQVVLTMTNMDPVDTATYYCARMGSDYDVWFDYWGQGTLVTVSS VL: DIQMTQSPSTLSASVGDRVTITCRASKSISKYLAWYQQKPGKAPKLLIYSGSTLQSGVPSRFSGSGSGTEFTLTISSLQPDDFATYYCQQHLMAPYTFGGGTKVEIK",% of Lc16Hc7,154%
"Phage # 70 Fab (IL-13-142 library) (Fab, V domains shown, Fab on phage pIX) VH: QVTLKESGPVLVKPTETLTLTCTVSGFSLSTYGMGVGWIRQPPGKALEWLAHIWWDDVKRYNPALKSRLTISKDTSKSQVVLTMTNMDPVDTATYYCARMGSDYDVWFDYWGQGTLVTVSS VL: DIQMTQSPSTLSASVGDRVTITCRASKSISKYLAWYQQKPGKAPKLLIYSGSTLQSGVPSRFSGSGSGTEFTLTISSLQPDDFATYYCQQHSWGPYTFGGGTKVEIK",% of Lc16Hc7,308%
"Phage # 46 Fab (IL-13-142 library) (Fab, V domains shown, Fab on phage pIX) VH: QVTLKESGPVLVKPTETLTLTCTVSGFSLSTYGMGVGWIRQPPGKALEWLAHIWWDDVKRYNPALKSRLTISKDTSKSQVVLTMTNMDPVDTATYYCARMGSDYDVWFDYWGQGTLVTVSS VL: DIQMTQSPSTLSASVGDRVTITCRASKSISKYLAWYQQKPGKAPKLLIYSGSTLQSGVPSRFSGSGSGTEFTLTISSLQPDDFATYYCQQHVTLPYTFGGGTKVEIK",% of Lc16Hc7,281%
"Phage # 65 Fab (IL-13-142 library) (Fab, V domains shown, Fab on phage pIX) VH: QVTLKESGPVLVKPTETLTLTCTVSGFSLSTYGMGVGWIRQPPGKALEWLAHIWWDDVKRYNPALKSRLTISKDTSKSQVVLTMTNMDPVDTATYYCARMGSDYDVWFDYWGQGTLVTVSS VL: DIQMTQSPSTLSASVGDRVTITCRASKSISKYLAWYQQKPGKAPKLLIYSGSTLQSGVPSRFSGSGSGTEFTLTISSLQPDDFATYYCQQHDFVPYTFGGGTKVEIK",% of Lc16Hc7,147%
"Phage # 51 Fab (IL-13-142 library) (Fab, V domains shown, Fab on phage pIX) VH: QVTLKESGPVLVKPTETLTLTCTVSGFSLSTYGMGVGWIRQPPGKALEWLAHIWWDDVKRYNPALKSRLTISKDTSKSQVVLTMTNMDPVDTATYYCARMGSDYDVWFDYWGQGTLVTVSS VL: DIQMTQSPSTLSASVGDRVTITCRASKSISKYLAWYQQKPGKAPKLLIYSGSTLQSGVPSRFSGSGSGTEFTLTISSLQPDDFATYYCQQHSAGPYTFGGGTKVEIK",% of Lc16Hc7,192%
"Phage # 74 Fab (IL-13-142 library) (Fab, V domains shown, Fab on phage pIX) VH: QVTLKESGPVLVKPTETLTLTCTVSGFSLSTYGMGVGWIRQPPGKALEWLAHIWWDDVKRYNPALKSRLTISKDTSKSQVVLTMTNMDPVDTATYYCARMGSDYDVWFDYWGQGTLVTVSS VL: DIQMTQSPSTLSASVGDRVTITCRASKSISKYLAWYQQKPGKAPKLLIYSGSTLQSGVPSRFSGSGSGTEFTLTISSLQPDDFATYYCQQQDMGPYTFGGGTKVEIK",% of Lc16Hc7,301%
"Phage # 72 Fab (IL-13-142 library) (Fab, V domains shown, Fab on phage pIX) VH: QVTLKESGPVLVKPTETLTLTCTVSGFSLSTYGMGVGWIRQPPGKALEWLAHIWWDDVKRYNPALKSRLTISKDTSKSQVVLTMTNMDPVDTATYYCARMGSDYDVWFDYWGQGTLVTVSS VL: DIQMTQSPSTLSASVGDRVTITCRASKSISKYLAWYQQKPGKAPKLLIYSGSTLQSGVPSRFSGSGSGTEFTLTISSLQPDDFATYYCQQHNEGPYTFGGGTKVEIK",% of Lc16Hc7,114%
"Phage # 57 Fab (IL-13-142 library) (Fab, V domains shown, Fab on phage pIX) VH: QVTLKESGPVLVKPTETLTLTCTVSGFSLSTYGMGVGWIRQPPGKALEWLAHIWWDDVKRYNPALKSRLTISKDTSKSQVVLTMTNMDPVDTATYYCARMGSDYDVWFDYWGQGTLVTVSS VL: DIQMTQSPSTLSASVGDRVTITCRASKSISKYLAWYQQKPGKAPKLLIYSGSTLQSGVPSRFSGSGSGTEFTLTISSLQPDDFATYYCQQHDWEPYTFGGGTKVEIK",% of Lc16Hc7,245%
"Phage # 76 Fab (IL-13-142 library) (Fab, V domains shown, Fab on phage pIX) VH: QVTLKESGPVLVKPTETLTLTCTVSGFSLSTYGMGVGWIRQPPGKALEWLAHIWWDDVKRYNPALKSRLTISKDTSKSQVVLTMTNMDPVDTATYYCARMGSDYDVWFDYWGQGTLVTVSS VL: DIQMTQSPSTLSASVGDRVTITCRASKSISKYLAWYQQKPGKAPKLLIYSGSTLQSGVPSRFSGSGSGTEFTLTISSLQPDDFATYYCQQHLDLPYTFGGGTKVEIK",% of Lc16Hc7,256%
"Phage # 61 Fab (IL-13-142 library) (Fab, V domains shown, Fab on phage pIX) VH: QVTLKESGPVLVKPTETLTLTCTVSGFSLSTYGMGVGWIRQPPGKALEWLAHIWWDDVKRYNPALKSRLTISKDTSKSQVVLTMTNMDPVDTATYYCARMGSDYDVWFDYWGQGTLVTVSS VL: DIQMTQSPSTLSASVGDRVTITCRASKSISKYLAWYQQKPGKAPKLLIYSGSTLQSGVPSRFSGSGSGTEFTLTISSLQPDDFATYYCQQHLFTPYTFGGGTKVEIK",% of Lc16Hc7,245%
"Phage # 40 Fab (IL-13-142 library) (Fab, V domains shown, Fab on phage pIX) VH: QVTLKESGPVLVKPTETLTLTCTVSGFSLSTYGMGVGWIRQPPGKALEWLAHIWWDDVKRYNPALKSRLTISKDTSKSQVVLTMTNMDPVDTATYYCARMGSDYDVWFDYWGQGTLVTVSS VL: DIQMTQSPSTLSASVGDRVTITCRASKSISKYLAWYQQKPGKAPKLLIYSGSTLQSGVPSRFSGSGSGTEFTLTISSLQPDDFATYYCQQHSRGPYTFGGGTKVEIK",% of Lc16Hc7,179%
"Phage # 71 Fab (IL-13-142 library) (Fab, V domains shown, Fab on phage pIX) VH: QVTLKESGPVLVKPTETLTLTCTVSGFSLSTYGMGVGWIRQPPGKALEWLAHIWWDDVKRYNPALKSRLTISKDTSKSQVVLTMTNMDPVDTATYYCARMGSDYDVWFDYWGQGTLVTVSS VL: DIQMTQSPSTLSASVGDRVTITCRASKSISKYLAWYQQKPGKAPKLLIYSGSTLQSGVPSRFSGSGSGTEFTLTISSLQPDDFATYYCQQPLDSPYTFGGGTKVEIK",% of Lc16Hc7,208%
"Phage # 75 Fab (IL-13-142 library) (Fab, V domains shown, Fab on phage pIX) VH: QVTLKESGPVLVKPTETLTLTCTVSGFSLSTYGMGVGWIRQPPGKALEWLAHIWWDDVKRYNPALKSRLTISKDTSKSQVVLTMTNMDPVDTATYYCARMGSDYDVWFDYWGQGTLVTVSS VL: DIQMTQSPSTLSASVGDRVTITCRASKSISKYLAWYQQKPGKAPKLLIYSGSTLQSGVPSRFSGSGSGTEFTLTISSLQPDDFATYYCQQLSYEPYTFGGGTKVEIK",% of Lc16Hc7,355%
"Phage # 43 Fab (IL-13-142 library) (Fab, V domains shown, Fab on phage pIX) VH: QVTLKESGPVLVKPTETLTLTCTVSGFSLSTYGMGVGWIRQPPGKALEWLAHIWWDDVKRYNPALKSRLTISKDTSKSQVVLTMTNMDPVDTATYYCARMGSDYDVWFDYWGQGTLVTVSS VL: DIQMTQSPSTLSASVGDRVTITCRASKSISKYLAWYQQKPGKAPKLLIYSGSTLQSGVPSRFSGSGSGTEFTLTISSLQPDDFATYYCQQHLGQPYTFGGGTKVEIK",% of Lc16Hc7,205%
"Phage # 55 Fab (IL-13-142 library) (Fab, V domains shown, Fab on phage pIX) VH: QVTLKESGPVLVKPTETLTLTCTVSGFSLSTYGMGVGWIRQPPGKALEWLAHIWWDDVKRYNPALKSRLTISKDTSKSQVVLTMTNMDPVDTATYYCARMGSDYDVWFDYWGQGTLVTVSS VL: DIQMTQSPSTLSASVGDRVTITCRASKSISKYLAWYQQKPGKAPKLLIYSGSTLQSGVPSRFSGSGSGTEFTLTISSLQPDDFATYYCQQHLTNPYTFGGGTKVEIK",% of Lc16Hc7,355%
"Phage # 67 Fab (IL-13-142 library) (Fab, V domains shown, Fab on phage pIX) VH: QVTLKESGPVLVKPTETLTLTCTVSGFSLSTYGMGVGWIRQPPGKALEWLAHIWWDDVKRYNPALKSRLTISKDTSKSQVVLTMTNMDPVDTATYYCARMGSDYDVWFDYWGQGTLVTVSS VL: DIQMTQSPSTLSASVGDRVTITCRASKSISKYLAWYQQKPGKAPKLLIYSGSTLQSGVPSRFSGSGSGTEFTLTISSLQPDDFATYYCQQPIDGPYTFGGGTKVEIK",% of Lc16Hc7,127%
"Phage # 44 Fab (IL-13-142 library) (Fab, V domains shown, Fab on phage pIX) VH: QVTLKESGPVLVKPTETLTLTCTVSGFSLSTYGMGVGWIRQPPGKALEWLAHIWWDDVKRYNPALKSRLTISKDTSKSQVVLTMTNMDPVDTATYYCARMGSDYDVWFDYWGQGTLVTVSS VL: DIQMTQSPSTLSASVGDRVTITCRASKSISKYLAWYQQKPGKAPKLLIYSGSTLQSGVPSRFSGSGSGTEFTLTISSLQPDDFATYYCQQHDIGPYTFGGGTKVEIK",% of Lc16Hc7,240%
"Phage # 47 Fab (IL-13-142 library) (Fab, V domains shown, Fab on phage pIX) VH: QVTLKESGPVLVKPTETLTLTCTVSGFSLSTYGMGVGWIRQPPGKALEWLAHIWWDDVKRYNPALKSRLTISKDTSKSQVVLTMTNMDPVDTATYYCARMGSDYDVWFDYWGQGTLVTVSS VL: DIQMTQSPSTLSASVGDRVTITCRASKSISKYLAWYQQKPGKAPKLLIYSGSTLQSGVPSRFSGSGSGTEFTLTISSLQPDDFATYYCQQLTYEPYTFGGGTKVEIK",% of Lc16Hc7,233%
"Phage # 56 Fab (IL-13-142 library) (Fab, V domains shown, Fab on phage pIX) VH: QVTLKESGPVLVKPTETLTLTCTVSGFSLSTYGMGVGWIRQPPGKALEWLAHIWWDDVKRYNPALKSRLTISKDTSKSQVVLTMTNMDPVDTATYYCARMGSDYDVWFDYWGQGTLVTVSS VL: DIQMTQSPSTLSASVGDRVTITCRASKSISKYLAWYQQKPGKAPKLLIYSGSTLQSGVPSRFSGSGSGTEFTLTISSLQPDDFATYYCQQHWDAPYTFGGGTKVEIK",% of Lc16Hc7,234%

# Source: US20120045438A1 (Janssen / Centocor, published 2012)
